# In doi:10.1101/2020.05.04.076190:
# B1: CACGTG E-box probe (dsDNA)
# DNA 1: GCGCGGGCACGTGGGCCGGGG
# DNA 2: CCCCGGCCCACGTGCCCGCGC
# Target: MycWT bHLH-LZ;Max bHLH-LZ (p21 isoform) (human?;, UniProt P01106;P61244 ;, |)
# Test: EMSA
binder,measurement,value
B1,binding result,binds
